From patent US20120213761A1 (MEDIZINISCHE UNIVERSITAET WIEN, published 2012)

Biological target: T1, tumor necrosis factor receptor-associated factor 2 (TRAF2), endogenous, in human cardiac tissue (human, UniProt Q12933 2-501)
T1 construct: Immunoprecipitated from human cardiac tissue or tissue culture lysates with a TRAF2 antibody (BD Pharmingen)
T1 sequence (looked up): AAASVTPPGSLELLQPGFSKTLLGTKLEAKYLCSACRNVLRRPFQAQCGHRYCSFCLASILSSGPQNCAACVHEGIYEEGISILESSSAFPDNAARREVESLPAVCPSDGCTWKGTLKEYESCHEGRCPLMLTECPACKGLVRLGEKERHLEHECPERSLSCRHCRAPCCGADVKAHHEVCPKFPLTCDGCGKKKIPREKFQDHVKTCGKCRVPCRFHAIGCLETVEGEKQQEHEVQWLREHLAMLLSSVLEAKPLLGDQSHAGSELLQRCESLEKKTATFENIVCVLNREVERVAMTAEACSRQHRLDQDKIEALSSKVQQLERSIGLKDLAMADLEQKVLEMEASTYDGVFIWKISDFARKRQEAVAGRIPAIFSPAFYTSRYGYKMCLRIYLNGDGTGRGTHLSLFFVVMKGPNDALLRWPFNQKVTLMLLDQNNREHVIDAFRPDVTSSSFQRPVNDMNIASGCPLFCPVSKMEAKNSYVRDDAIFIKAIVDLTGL
Experiment: co-IP of LV myocardial lysates, Western blot (FIG. 2A)
Protocol: Human cardiac tissue was lysed in the lysis buffer containing 20 mM Tris (pH 7.5), 135 mM NaCl, 2 mM ethylenediaminetetraacetic acid (EDTA), 2 mM dithiothreitol (DTT), 25 mM β-glycerophosphate, 2 mM sodium pyrophosphate, 10% glycerol, 1% Triton X-100, 1 mM sodium orthovanadate, 10 mM NaF and 1 mM phenylmethylsulfonyl fluoride (PMSF) supplemented with complete protease inhibitor cocktail (Roche Applied Science, Indianapolis, Ind., USA) at 4 C as described (Aharinejad et al., 2005). Lysates were centrifuged (15 000 g) at 4 C for 15 min. For identify GSTP1-TRAF2 complexes formation proteins (500 μg) were immunoprecipitated with TRAF2 antibody (0.5 μg, BD Pharmingen, San Diego, Calif.). […]
Protein lysates (50 μg/lane) were separated by SDS-PAGE (10%) prior to electrophoretic transfer onto a Nitrocellulose membrane (Bio-Rad, Hercules, Calif.) as described (Aharinejad et al., 2005). […] Protein loading was assessed by Ponceau S staining and immunodetection was performed by chemiluminescence (Supersignal-West-Pico, Pierce, Rockford, Bands were quantified by ImageQuant software and specific protein signals were normalized to loading controls and expressed as arbitrary units. The average value of three measurements in each sample was used for data analysis.

B1: Glutathione S-transferase P1 (GSTP1), endogenous, in human left ventricular myocardial lysates (enzyme)
chain: PPYTVVYFPVRGRCAALRMLLADQGQSWKEEVVTVETWQEGSLKASCLYGQLPKFQDGDLTLYQSNTILRHLGRTLGLYGKDQQEAALVDMVNDGVEDLRCKYISLIYTNYEAGKDDYVKALPGQLKPFETLLSQNQGGKTFIVGDQISFADYNLLDLLLIHEVLAPGCLDAFPLLSAYVGRLSARPKLKAFLASPEYVNLPINGNGKQ
notes: also called GST-pi; GSTP1-1
B1: binds.
